Experimental data: PMC9170038

B1: Eterna 7734974 (Same State - Theophylline A) (ssRNA)
RNA: AAAAUAAAUAAAACACGUAACAUGAAGGAUACCAGACAGGAAACUGUCCCUUGGCAGCCUCUACAUGAGGAUCACCCAUGUCGUG
B2: Eterna 6121097 (Same State NG 1) (ssRNA)
RNA: CGCUGUCACGCAGGAUAUGCAUUGGAUUACAAUGCAGAAGGGCGAUUACAUGAGGAUCACCCAUGUGUCGACAGUGAAGAAGAG
B3: Eterna 7732393 (Same State - FMN B) (ssRNA)
RNA: AUUUUUUUGUCAGGAUAUUAGUGUGGGUUUGGUUUGUUAGUGAUGUUGAUAUUUGUUUUAUGUAUUUAAGAAGGGAUUUAGCGGU
B4: Eterna 6391704 (Inverted Exclusion NG 3) (ssRNA)
RNA: AGCUGGUGACAGCAUCCAUCUUAACAUGAGGAUCACCCAUGUAGAAGGCUGUACGGUUACCGUACAGAGGAUAUACAUAGAUGG
B5: Eterna 12641 (Exclusion 3) (ssRNA)
RNA: AAUAGCUAAGGAUAUACAUGAGGAUCACCCAUGUAAAACACUACUUGGAACCGCCUCGGUAGAAGGUAGAAAAU
B6: Eterna 5862108 (Exclusion NG 1) (ssRNA)
RNA: UCACGGGAUUGAGGAUAUAUAUUAAUUUUUUUUAUAGAAGGCAAAAUGUUAGAUUAUUCACUAUACAUGAGGAUCACCCAUGUU
B7: Eterna 7616241 (Exclusion - Tryptophan A) (ssRNA)
RNA: AAUGUAUGCCACAUGAGGAUCACCCAUGUGCGAGGACCGGUACGGCCGCCACUCGGUCGGUGGUUAAUGAAGAUAUACAAUAAUG
B8: Eterna 1165 (Exclusion - Theophylline B) (ssRNA)
RNA: CCAAGCGUCAGCGAUACCAGAAUUCUAGUGAUGUUAGGUUCUGUCAUUGUACUAGCAGUGUUCCCUUGGCAGCGCGUGAUAGGCA
B9: Eterna 7726098 (Exclusion - FMN A) (ssRNA)
RNA: AAGUGAUGUUGUAGUGAUGUUGUGAUGUUGCAGGAUAUAUAGUGAUGUAGAAGGGUAAGUACUUAUUUUUUUUUUGAGUUAUGUU
B10: Eterna 6124182 (Same State NG 2) (ssRNA)
RNA: GUAGCAUGAUUAGGAUAUUCAGCGAAUAGAUUGACAUGAGGAUCACCCAUGUGGCGAAAGCCGAGGGAGAAGGGAUGAUGCUAC
B11: Eterna 6402672 (Exclusion NG 2) (ssRNA)
RNA: UGGCCCGCCGGAGGAUAUCUACUCUGUGGUGCACUGCGUUUGCAAUACAUGAGGAUCACCCAUGUAGAGAAGGCCGAGGGCACA
B12: Eterna 7681146 (Same State - Arginine A) (ssRNA)
RNA: ACUGGGUUGACGAAAGUCAACAAAAGAGAAGGAGCGCACGAAAGUGCAGGUAGGUCGCUCAUCCAGUGAUGUUGGAUCAUCCAGA
B13: Eterna 6451659 (Inverted Exclusion NG 1) (ssRNA)
RNA: GCGUGGUUCUAGAAGGUGCUAGCGAUAAGCUAGCAAGGAUAUAGACAUGAGGAUCACCCAUGUCUUAGUGAAAUGGACACACGC
B14: Eterna 1206 (Exclusion - Tryptophan A) (ssRNA)
RNA: CUAUAGACCCUUCGGAUAGUGAUGUUGUCACGAGGACCGGUACGGCCGCCACUCGCUGCCACCAUACCGCUUCACGGAACGAGCA
B15: Eterna 6443967 (Same State NG 2) (ssRNA)
RNA: CUAUAGAUAUGAGGAUAUGUAUAUCCAACAUGAGGAUCACCCAUGUUGAUGAUCACGUAUGUAAAGCAGAAGGCAUAUCUAUAG
B16: Eterna 15533 (Exclusion 1) (ssRNA)
RNA: UCUCGACAUGAGGAUCACCCAUGUCAGGAUAUUGUGUUUGAGGUUUUUUACCUUUUGACAAGAAGGGAUGUGUG
B17: Eterna 5978372 (Brourd's mod of Exclusion 4) (ssRNA)
RNA: GCGUCUCCUGUCAGGAUAUGCACCGGCUCGCCGGCGUAGAAGGGACAUGAGGAUCACCCAUGUGGUCUACACUU
B18: Eterna 6449046 (Small Loop Same State NG 1) (ssRNA)
RNA: AAUAAACACACAGGAUAUAGCAUCGUCGUUGCGAACUUAGCGACGACGAUGCUAGAAGGGUGAACACAUGAGGAUCACCCAUGU
B19: Eterna 6461519 (Inverted Same State NG 1) (ssRNA)
RNA: GUGCCUAACUAGAAGGCCCAAUGCAAAGCAUCGGGAGGAUAUGGGUUUAAUAAAUAAACAUGAGGAUCACCCAUGUGGCACAAA
B20: Eterna 7692390 (Exclusion - Arginine A) (ssRNA)
RNA: AGUAGGAAACUACAAUCCUCUCUUACUGAAGGAGCGCGUGAAAACGCAGGUAGGUCGCAGGAUUGGAGAGUGAUGUUCUCCUUAA
B21: Eterna 6450941 (Small Loop Exclusion NG 3) (ssRNA)
RNA: UGGACCGAGCUAUCGGUUGACUGGGAGGAUAUGACAUGAGGAUCACCCAUGUGGGAUCUAAAUUGUCAGAAGGCUCGUUCUGGG
B22: Eterna 6128104 (Same State NG 3) (ssRNA)
RNA: GCUCGAUGAGCUGUCUACAUGAGGAUCACCCAUGUAGAUGGGCAGGAUAUUUACGUGCUUUAUGUAGAGAAGGGCCCAUCGAGC
B23: Eterna 6080103 (Exclusion 1) (ssRNA)
RNA: CCCGGACAUGAGGAUCACCCAUGUUAGGAUAUCUAGAGGAUCUAAACCGAAUAGAUCCAGAGAAGGGAUGUGGG
B24: Eterna 7759081 (Exclusion - Theophylline A) (ssRNA)
RNA: AACUGUCAAGGACAACAUUACUGAGGUGAUACCAGCAUCGAAAGAUGCCCUUGGCAGCGCCAACUUGCAGUGAUGUUGCAAGUAA
B25: Eterna 9406 (Exclusion 4) (ssRNA)
RNA: UUCAUGUGAGGAUAUGUGAUCUGCUUUCUGUUUAGAUGAUCACAGAAGGCACAUGAGGAUCACCCAUGUAGAUC
B26: Eterna 6145156 (Exclusion NG 1) (ssRNA)
RNA: UUAAAUCAUGUAGGAUAUGCAUGGCGAAGCUACGCAGAAGGACAUGAGGAUCACCCAUGUUAUAGCUACCGAAUAAGGUGGCAA
B27: Eterna 7612197 (Same State - Arginine B) (ssRNA)
RNA: ACGUAAAGCAGAAGGAGCGUCUUCAAUUUACAUGAGGAUCACCCAUGUUUUGUGAUCAUAUGACAGGUAGGUCGCUGAAGUACGA
B28: Eterna 12242 (Exclusion 3) (ssRNA)
RNA: GACUAGGCAGGAUAUACAUGAGGAUCACCCAUGUGUCUGCGAUAGGCACGUGAUUACUGUAGAAGGGCCUUGAC
B29: Eterna 7752556 (Exclusion - Arginine B) (ssRNA)
RNA: UUAGUCUAGAGAAGGAGCGAGUGAUGUUCGCAUGCUAUGAUGAAUUCAUCAUAGUUUAAUCCUCAGGUAGGUCGCUCUAGACAUU
B30: Eterna 6453699 (Inverted Same State NG 2) (ssRNA)
RNA: AGUUUGUUUGAGAAGGUGAAGUGGAAACAUGAGGAUCACCCAUGUAUUAGGAAGCCUGGUUUUGUCAAGGAUAUCGGGUAAACA
B31: Eterna 7675419 (Same State - Tryptophan A) (ssRNA)
RNA: UUUAAACAUAGUGAUGUUAUGUAACAAUGACGAGGACCGGUACGGCCGCCACUCGAGAGAGAUGAUGGUAAAAUAAAUAAUUUUC
B32: Eterna 6461477 (Inverted Same State NG 1) (ssRNA)
RNA: GCUGCAUGUGAGAAGGCGAUCAUGAAACAUGAUCGAGGAUAUCAUGUAAACAUGAGGAUCACCCAUGUAUGGGUAUUAAGCAGC
B33: Eterna 6406790 (Exclusion NG 3) (ssRNA)
RNA: GUACUGAAGCUUUGCUUUAGUCGUACAUGAGGAUCACCCAUGUAGGAUAUGGUAGGCUUUGCUUACUAGAAGGAUAGAGUGAUU
B34: Eterna 6430560 (Small Loop Same State NG 3) (ssRNA)
RNA: ACUUAAAUACCCAAAAGUCGGGCGGAGGAUAUGGAGCUUCCACCACAUGAGGAUCACCCAUGUCUUCAGAAGGCCGCCCUUGGA
B35: Eterna 7671436 (Same State - Theophylline A) (ssRNA)
RNA: UGGACCUGACUCGAUAAGAGUCAAGGAGAUACCAGCCACGAAAGUGGCCCUUGGCAGCUCUGCCAGUGAUGUUGGUCAAGGUCCU
B36: Eterna 6033767 (Exclusion 3) (ssRNA)
RNA: AGGGUAGUAGGAUAUACAUGAGGAUCACCCAUGUUUCCAUUACGUGACUGGUCCUAGUGUAGAAGGGCUAGCAC

Tests used:
[1] = tested on: BH_E029 (RNA, aptamer) GGGAGAGUGGCAGCUUACAACGUAACGAUGCGGCCGCCACUGAUCCGACUGGUUAACAGAAAGUCCUGACCAGGUAACGAAUGGUCAGGACCGGGCAUUGUUACGAAGUGGGCUGUUGCUUUUCC; experiment: light-up fluorescence kinetics; conditions: 5 mM MgCl2, 1x PBS, pH 6.1, with tryptophan (ON state)
[2] = target: T1, MS2 coat protein, dlFG mutant (Escherichia phage MS2, UniProt P03612, del68-81insG); experiment: 4 mM Mg2+; no ligand; RNA-MaP array; 100 mM Tris-HCl pH 7.5, 80 mM KCl, 4 mM MgCl2, 0.1 mg/mL BSA, 1 mM DTT, 0.01 mg/mL yeast tRNA, 0.01% Tween-20; protein 1.5 nM to 3 uM; 37 C (Table S3); conditions: chain copies: 2; label: tethered by stalled RNA polymerase
[3] = target: T1, MS2 coat protein, dlFG mutant; experiment: 4 mM Mg2+; FMN 200 uM; RNA-MaP array; 100 mM Tris-HCl pH 7.5, 80 mM KCl, 4 mM MgCl2, 0.1 mg/mL BSA, 1 mM DTT, 0.01 mg/mL yeast tRNA, 0.01% Tween-20; protein 1.5 nM to 3 uM; 37 C (Table S3); conditions: chain copies: 2; label: tethered by stalled RNA polymerase
[4] = target: T1, MS2 coat protein, dlFG mutant; experiment: 4 mM Mg2+; L-tryptophan 2.4 mM; RNA-MaP array; 100 mM Tris-HCl pH 7.5, 80 mM KCl, 4 mM MgCl2, 0.1 mg/mL BSA, 1 mM DTT, 0.01 mg/mL yeast tRNA, 0.01% Tween-20; protein 1.5 nM to 3 uM; 37 C (Table S3); conditions: chain copies: 2; label: tethered by stalled RNA polymerase

Row | Molecule | Kd [2] | other results
1 | CN(C)c1ccc(C(=C2C=CC(=[N+](C)C)C=C2)c2ccccc2)cc1 | – | binding [1]: yes
2 | B1 | 246 nM | –
3 | B2 | 532 nM | –
4 | B3 | > 3000 nM | –
5 | B4 | – | Kd [3]: 9.28 nM
6 | B5 | 20.6 nM | –
7 | B6 | 25.5 nM | –
8 | B7 | – | Kd [4]: 15.5 nM
9 | B8 | > 3000 nM | –
10 | B9 | > 3000 nM | –
11 | B10 | 165 nM | –
12 | B11 | 269 nM | –
13 | B12 | > 3000 nM | –
14 | B13 | 4.84 nM | –
15 | B14 | > 3000 nM | –
16 | B15 | 8.38 nM | –
17 | B16 | 29.8 nM | –
18 | B17 | 84.3 nM | –
19 | B18 | 195 nM | –

Row | Molecule | Kd [2] | other results
20 | B19 | 46 nM | –
21 | B20 | > 3000 nM | –
22 | B21 | 264 nM | –
23 | B22 | 191 nM | –
24 | B23 | 34.3 nM | –
25 | B24 | > 3000 nM | –
26 | B25 | 141 nM | –
27 | B26 | 91.1 nM | –
28 | B27 | 127 nM | –
29 | B28 | 330 nM | –
30 | B29 | > 3000 nM | –
31 | B30 | 15.2 nM | –
32 | B31 | > 3000 nM | –
33 | B32 | 272 nM | –
34 | B33 | 54.4 nM | –
35 | B34 | 100 nM | –
36 | B35 | > 3000 nM | –
37 | B36 | 17 nM | –
